# Measurements from patent US20240336672A1 (INSTITUT PASTEUR, published 2024).
# Positions count from the first letter of the chain named.
# B1: Cv2.1169 (recombinant human IgG1) (antibody)
# heavy: QVQLVQSGPEVKKPGTSVKVSCKASGFTFTTSAVQWVRQARGQRLEWIGWIVVGSGNTNYAQKFQERVTITRDMSTTTAYMELSSLRSEDTAVYYCAAPYCSGGTCLDGFDIWGQGTMVTVSSASTKGPSVFPLAPSSKSTSGGTAALGCLVKDYFPEPVTVSWNSGALTSGVHTFPAVLQSSGLYSLSSVVTVPSSSLGTQTYICNVNHKPSNTKVDKKVEPKSCDKTHTCPPCPAPELLGGPSVFLFPPKPKDTLMISRTPEVTCVVVDVSHEDPEVKFNWYVDGVEVHNAKTKPREEQYNSTYRVVSVLTVLHQDWLNGKEYKCKVSNKALPAPIEKTISKAKQPREPQVYTLPPSRDELTKNQVSLTCLVKGFYPSDIAVEWESNGQPENNYKTTPPVLDSDGSFFLYSKLTVDKSRWQQGNVFSCSVMHEALHNHYTQKSLSLSPGK
# light: not shown
# notes: also called Cv2.1169 IgG
# B2: Cv2.1353 (recombinant human IgG1) (antibody, V domains shown)
# VH: EVQLVESGGGLVQPGGSLRLSCAASGVTVSSNYMNWVRQAPGKGLEWVSVIYSGGSTFYADSVKGRFIISRDNSKNTLYLQMNSLKTEDTAVYYCARDLGPMGFDIWGQGTMVTVSS
# VL: DIQMTQSPSFLSASVGDRVTITCRASQGISSYLAWYQQKPGKAPKLLIYAASTLQSGVPSRFSGSGSGTEFTLTISSLQPEDFATYYCQQLNSDPPVTFGPGTKVDIKR
# B3: Cv2.3194 (recombinant human IgG1) (antibody, V domains shown)
# VH: EVQLVESGGGLIQPGGSLRLSCAASGITVTSNYMSWVRQAPGKGLEWVSVIYPGGSTFYADSVKGRFTISRDNSKNTLYLQMNSLRAEDTAVYYCARDLVVYGMDVWGQGTTVTVSS
# VL: EIVLTQSPGTLSLSPGERATLSCRASQSVSSSYLAWYQQKPGQAPRLLIYGASSRATGIPGRFSGSGSGTDFTLTISRLEPEDFAIYYCQQGVTFGGGTKVEIKR
# B4: Cv2.5213 (recombinant human IgG1) (antibody, V domains shown)
# VH: B3 VH with I27F, T30S, V50L, P53S, F58Y, V100N, V101Y, T111A
# VL: B2 VL with F10S, E70D, N92D, D94Y, P95S, V97F
# B5: Cv2.3235 (recombinant human IgG1) (antibody, V domains shown)
# VH: B3 VH with I27F, T30S, S31R, P53S, L99G, V100D, V101Y
# VL: DIQMTQSPSFLSASVGDRVTITCRASQGISSFLAWYQQKPGKAPKLLIYGASTLQSGVTSRFSGSGSGTEFTLTISSLQPEDFATYYCQRLDSYPPITFGQGTRLEIKR
# How the values were obtained:
# [1] = target: T1, CoV-NL63 Spike ectodomain (NL63-CoV, UniProt Q6Q1S2 19-1291); test: ELISA, coated antigen; note: test concentration or dose not given here
# T1 sequence: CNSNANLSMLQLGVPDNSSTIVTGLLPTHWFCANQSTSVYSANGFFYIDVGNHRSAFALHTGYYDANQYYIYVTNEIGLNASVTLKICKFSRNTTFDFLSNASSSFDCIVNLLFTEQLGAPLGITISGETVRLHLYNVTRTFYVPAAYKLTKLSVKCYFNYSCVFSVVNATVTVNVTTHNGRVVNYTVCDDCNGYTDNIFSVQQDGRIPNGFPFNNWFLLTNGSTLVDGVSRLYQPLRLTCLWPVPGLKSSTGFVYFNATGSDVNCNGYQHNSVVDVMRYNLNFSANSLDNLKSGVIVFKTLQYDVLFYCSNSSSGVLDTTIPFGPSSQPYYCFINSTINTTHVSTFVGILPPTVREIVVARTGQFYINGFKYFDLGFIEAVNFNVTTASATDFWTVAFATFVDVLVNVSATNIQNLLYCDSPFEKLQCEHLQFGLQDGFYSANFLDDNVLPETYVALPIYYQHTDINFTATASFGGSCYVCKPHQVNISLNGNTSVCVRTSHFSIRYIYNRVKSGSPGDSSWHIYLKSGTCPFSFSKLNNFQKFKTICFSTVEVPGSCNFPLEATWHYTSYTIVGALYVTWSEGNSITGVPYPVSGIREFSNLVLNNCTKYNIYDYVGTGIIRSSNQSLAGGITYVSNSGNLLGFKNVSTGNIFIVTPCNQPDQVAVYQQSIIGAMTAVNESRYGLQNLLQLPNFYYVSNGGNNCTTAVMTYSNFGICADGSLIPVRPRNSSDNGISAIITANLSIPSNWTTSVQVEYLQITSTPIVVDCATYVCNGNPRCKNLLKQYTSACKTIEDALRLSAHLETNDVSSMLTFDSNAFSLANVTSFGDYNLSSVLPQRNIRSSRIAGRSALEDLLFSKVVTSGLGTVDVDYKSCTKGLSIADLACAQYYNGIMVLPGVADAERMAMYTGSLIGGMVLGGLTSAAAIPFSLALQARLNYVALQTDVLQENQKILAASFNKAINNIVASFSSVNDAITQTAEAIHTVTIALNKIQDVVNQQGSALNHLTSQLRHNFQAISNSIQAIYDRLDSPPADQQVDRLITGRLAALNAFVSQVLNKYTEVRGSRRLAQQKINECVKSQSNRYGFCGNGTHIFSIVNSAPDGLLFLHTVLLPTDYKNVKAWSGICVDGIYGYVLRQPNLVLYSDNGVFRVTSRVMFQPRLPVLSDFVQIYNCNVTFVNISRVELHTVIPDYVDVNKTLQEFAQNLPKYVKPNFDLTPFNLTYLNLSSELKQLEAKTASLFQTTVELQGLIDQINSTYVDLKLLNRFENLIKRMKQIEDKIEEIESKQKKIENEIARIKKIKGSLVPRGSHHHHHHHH
# [2] = target: T2, CoV-HKU1 Spike ectodomain (HKU1-CoV, UniProt Q0ZME7 14-1276); test: ELISA, coated antigen; note: test concentration or dose not given here
# T2 chain: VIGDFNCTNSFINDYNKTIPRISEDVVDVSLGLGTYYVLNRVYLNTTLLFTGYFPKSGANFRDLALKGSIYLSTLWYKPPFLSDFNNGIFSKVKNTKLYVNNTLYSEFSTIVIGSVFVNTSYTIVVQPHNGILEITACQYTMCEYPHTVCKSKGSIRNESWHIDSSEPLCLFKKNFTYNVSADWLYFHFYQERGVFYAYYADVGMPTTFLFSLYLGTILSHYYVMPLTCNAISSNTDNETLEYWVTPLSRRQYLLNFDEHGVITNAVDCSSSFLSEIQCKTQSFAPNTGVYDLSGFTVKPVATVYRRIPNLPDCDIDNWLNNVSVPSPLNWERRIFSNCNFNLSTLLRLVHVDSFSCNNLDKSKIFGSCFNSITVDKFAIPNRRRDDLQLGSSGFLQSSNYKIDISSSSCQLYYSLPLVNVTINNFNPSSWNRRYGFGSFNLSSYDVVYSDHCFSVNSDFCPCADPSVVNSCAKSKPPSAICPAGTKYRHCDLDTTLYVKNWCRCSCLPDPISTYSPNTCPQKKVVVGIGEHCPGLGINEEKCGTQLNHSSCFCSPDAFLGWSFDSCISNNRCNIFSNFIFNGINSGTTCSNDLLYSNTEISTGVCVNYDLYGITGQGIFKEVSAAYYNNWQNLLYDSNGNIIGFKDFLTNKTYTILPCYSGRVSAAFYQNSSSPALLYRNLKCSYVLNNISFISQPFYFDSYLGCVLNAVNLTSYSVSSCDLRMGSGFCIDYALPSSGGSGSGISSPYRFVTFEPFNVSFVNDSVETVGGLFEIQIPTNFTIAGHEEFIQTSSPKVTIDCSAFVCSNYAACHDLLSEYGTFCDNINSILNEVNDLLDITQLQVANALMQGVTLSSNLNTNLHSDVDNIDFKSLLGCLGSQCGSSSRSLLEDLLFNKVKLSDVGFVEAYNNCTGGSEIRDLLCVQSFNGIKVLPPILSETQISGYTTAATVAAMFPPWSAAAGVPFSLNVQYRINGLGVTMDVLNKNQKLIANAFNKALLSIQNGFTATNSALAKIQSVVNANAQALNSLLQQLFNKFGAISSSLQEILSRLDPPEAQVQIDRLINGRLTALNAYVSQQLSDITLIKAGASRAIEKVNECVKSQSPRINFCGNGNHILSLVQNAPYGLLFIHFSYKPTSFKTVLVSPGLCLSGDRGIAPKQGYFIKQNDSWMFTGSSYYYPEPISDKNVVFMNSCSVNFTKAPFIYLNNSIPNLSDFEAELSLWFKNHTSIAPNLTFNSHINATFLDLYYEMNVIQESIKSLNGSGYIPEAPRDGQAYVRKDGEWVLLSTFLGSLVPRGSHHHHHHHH
Binder,ELISA OD [1] [OD],ELISA OD [2] [OD]
B1,0.1,0.1
B2,0.1,0.1
B3,0.1,0.1
B4,0.1,0.1
B5,0.2,0.2
